Usually Kd stands for the concentration at which binding is half-saturated.

The target in one test is TGF-β1. Nature of the test: ELISA.
The target of test [1] is human recombinant BMP-2 (human) (UniProt P12643). Kind of test: ELISA. (In general: In an ELISA, binding on a coated surface is turned into a signal by an enzyme label.)
human recombinant BMP-2 (human), sequence (P12643 283-396): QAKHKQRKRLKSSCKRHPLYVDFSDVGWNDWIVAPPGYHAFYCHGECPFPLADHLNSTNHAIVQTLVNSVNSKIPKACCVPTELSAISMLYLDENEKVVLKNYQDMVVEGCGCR

Consider “recombinant human type IIA procollagen NH2-propeptide (rhIIA-GST, exon 2-GST fusion protein) (domain or fragment)”, for which the Kd with TGF-β1 was determined as 7.65 nM; in test [1] it was 5.23 nM.

The record behind these values is article PMC2148200.
